Results from patent US20210388097A1 (SORRENTO THERAPEUTICS, published 2021).
Residue numbers refer to the chain shown, from its start.

T1: Wild type human BCMA protein-mouse Fc (human)
T1 construct: also called wild type human BCMA-mouse Fc; wild type BCMA protein
T1 chain: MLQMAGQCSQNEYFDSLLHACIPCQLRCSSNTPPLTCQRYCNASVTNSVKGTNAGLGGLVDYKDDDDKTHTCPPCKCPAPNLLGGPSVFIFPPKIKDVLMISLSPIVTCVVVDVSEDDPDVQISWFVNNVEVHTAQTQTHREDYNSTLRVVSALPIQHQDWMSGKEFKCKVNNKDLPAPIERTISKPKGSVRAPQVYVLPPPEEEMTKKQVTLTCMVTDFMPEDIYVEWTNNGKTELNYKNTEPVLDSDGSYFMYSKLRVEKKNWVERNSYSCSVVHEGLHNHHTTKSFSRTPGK

T2: Mutant-2 human BCMA protein-mouse Fc (human)
T2 construct: also called mutant-2 human BCMA-mouse Fc (del32-35G); mutant-2 BCMA protein
T2 chain: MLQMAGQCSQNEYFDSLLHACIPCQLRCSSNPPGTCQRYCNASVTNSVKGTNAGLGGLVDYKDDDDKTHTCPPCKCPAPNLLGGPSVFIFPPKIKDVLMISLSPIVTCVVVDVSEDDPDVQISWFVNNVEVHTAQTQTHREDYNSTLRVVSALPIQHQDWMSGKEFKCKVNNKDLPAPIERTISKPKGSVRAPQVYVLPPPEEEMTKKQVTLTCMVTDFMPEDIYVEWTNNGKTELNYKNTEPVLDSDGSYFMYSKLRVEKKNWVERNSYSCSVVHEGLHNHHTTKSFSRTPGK

T3: his-tagged human BCMA protein (ACROBiosystems, catalog # BCA-H522y-100 ug) (human, UniProt Q02223 1-54)
T3 construct: limits of the bought construct are not otherwise stated; also called recombinant his-tagged human BCMA; not shown: his tag of the bought protein
T3 sequence: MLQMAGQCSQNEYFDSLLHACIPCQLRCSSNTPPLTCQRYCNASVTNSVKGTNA

T4: his-tagged mouse BCMA protein (ACROBiosystems, catalog # BCA-M52H3) (mouse, UniProt O88472 1-49)
T4 construct: Bought protein; not shown: his tag
T4 chain (looked up): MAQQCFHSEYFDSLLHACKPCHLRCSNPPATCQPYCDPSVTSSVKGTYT

B1: BCA7-2E1 antibody (antibody, V domains shown)
VH: EVQLVESGGGLVKPGGSLRLSCAASGFTSSTAWMSWVRQAPGKGLEWVGRIKSKSDGGTTDYAAPVKGRFTISRDDSKNTLFLQMNSLKTEDTAVYYCAKGGGTYGYWGQGTTVTVSS
VL: QSALTQPASVSGSPGQSVTISCTGTSSDGGGHTYVSWYQQHPGKAPKLMIYDVSNRPSWVSNRFSGSKSGNTASLTISGLQAEDEADYYCGSYTSSGSYVFGTGTKLTVL
notes: also called BCA-2E1
B2: BCA7-2D11 antibody (antibody, V domains shown)
VH: B1 VH
VL: B1 VL with Q1S, S2Y, A3E, D28V, G29V, T33D, W59G, L107V
B3: BCA7-2E8 antibody (antibody, V domains shown)
VH: B1 VH
VL: B1 VL with A3V, G29V, H32Y, T33N, W59G, Y93L, T94R, S96N, S98D, K106T
B4: BCA7-2G2 antibody (antibody, V domains shown)
VH: B1 VH
VL: B1 VL with A3V, D28S, G29V, H32R, T33Q, W59G
B5: BCA7-2D8 antibody (antibody, V domains shown)
VH: B1 VH
VL: B1 VL with A3V, D28S, G29I, G31D, H32S, T33Y, W59G, K106T
B6: BC4C9 antibody (antibody, V domains shown)
VH: EVQLVQSGAEVKKPGASVKVSCKAFGYTFTSYDINWVRQATGQGLEWMGWMNPNSGNTGYAQKFQGRVTMTRNTSISTAYMELSSLRSEDTAVYYCASGLGEWGQGTLVTVSS
VL: QSVLTQPASVSGSPGQSVTISCTGTSSDVGGYNYVSWYQQHPGKAPKLMIYDVSKRPSGVSNRFSGSKSGNTASLTISGLQAEDEADYYCISYSSSSTFYVFGTGTKVTVL
B7: BC5C4 antibody (antibody, V domains shown)
VH: EVQLVESGGGLVQPGRSLRLSCAASGFTFDDYAMHWVRQAPGKGLEWVSGISWNSGSIGYADSVKGRFTISRDNAKNSLYLQMNSLRAEDTAVYYCATIDNVAFHSWGQGTLVTVSS
VL: QSVLTQPPSASGSPGQSVTISCTGTSSDIGGYNYVSWYQQHPGKAPKLIIYEVSNRPSGVSDRFSGSKSGNTASLTISGLQAEDEADYYCSSYTDNGALVVFGGGTKLTVL
notes: also called CD5C4

Columns and labels:
[1] = target: T1, Wild type human BCMA protein-mouse Fc; test: bio-layer interferometry, antibody (100 nM) loaded on AR2G sensor, BCMA-mouse Fc in solution
Method: (§1) The results of the protein-protein binding assays described in Example 8 were used to design an epitope mapping assay using bio-layer interferometry. Various anti-BCMA antibodies (2C5, 2E1, 4C9, 6G8, Bluebird C11D5, GSK J6M0, or isotype control) (100 nM) were loaded onto AR2G sensors and reacted with buffer or one of three types of human BCMA proteins including: including: wild type human BCMA-mouse Fc (SEQ ID NO:5), mutant-1 human BCMA-mouse Fc (double mutation 17G-18G; SEQ ID NO:6), or mutant-2 human BCMA-mouse Fc (mutation del32-35G; SEQ ID NO:7).

[2] = target: T2, Mutant-2 human BCMA protein-mouse Fc; test: as above
Method: as §1

[3] = target: T3, his-tagged human BCMA protein …; test: SPR (Biacore T200), antibody captured on anti-human Fc chip, his-tagged human BCMA as analyte
Method: (§2) Binding kinetics of anti-BCMA antibodies with his-tagged human BCMA protein (ACROBiosystems, catalog # BCA-H522y-100 ug, UniProt Q02223-1, SEQ ID NO:92) was measured using surface plasmon resonance (SPR). Kinetic interactions between the antibodies and his-tagged BCMA proteins were measured at 25° C. using Biacore T200 surface plasmon resonance (GE Healthcare). Anti-human fragment crystallizable region (Fc region) antibody was immobilized on a CM5 sensor chip to approximately 8000 resonance units (RU) using standard N-hydroxysuccinimide/N-Ethyl-N′-(3-dimethylaminopropyl) carbodiimide hydrochloride (NHS/EDC) coupling methodology. The anti-BCMA antibody (2 μg/mL) was captured for 60 seconds at a flow rate of 10 μL/minute. The his-tagged BCMA protein was run at […] different dilutions of 3.12, 6.25, 12.5, 25, 50, 100 and 200 nM, in a running buffer of 0.01 M HEPES pH 7.4, 0.15 M NaCl, 3 mM EDTA, 0.05% v/v Surfactant P20 (HBS-EP+). The 25 nM BCMA protein run was measured two times. All measurements were conducted in HBS-EP+ buffer with a flow rate of 30 μL/minute. A 1:1 (Langmuir) binding model was used to fit the data. […]
(§3) Cross reactivity of two of the anti-BCMA antibodies, BCA7-2C5 and BCA7-2E1, with his-tagged human, cynomolgus or mouse BCMA protein were analyzed by SPR in the manner as described above. […]

[4] = target: T4, his-tagged mouse BCMA protein …; test: SPR (Biacore T200), antibody captured on anti-human Fc chip, his-tagged mouse BCMA as analyte
Method: as §2, §3

[5] = target: T5, his-tagged cynomolgus BCMA protein (ACROBiosystems, catalog # BCA-052H7) (cynomolgus, UniProt A0A2K5UD97 1-53); test: SPR (Biacore T200), antibody captured on anti-human Fc chip, his-tagged cynomolgus BCMA as analyte
T5 construct: Bought protein; also called cyno BCMA; not shown: his tag
Method: as §2, §3

[6] = target: T3, his-tagged human BCMA protein …; test: SPR (Biacore T200), antibody captured on anti-human Fc, his-tagged human BCMA as analyte; fit with ka1/kd1/ka2/kd2 (model not named)
Method: Binding kinetics of anti-BCMA antibodies with his-tagged human BCMA protein (ACROBiosystems, catalog # BCA-H522y-100 ug, UniProt Q02223-1, SEQ ID NO:92) was measured using surface plasmon resonance (SPR). Kinetic interactions between the antibodies and his-tagged BCMA proteins were measured at 25° C. using Biacore T200 surface plasmon resonance (GE Healthcare). Anti-human fragment crystallizable region (Fc region) antibody was immobilized on a CM5 sensor chip to approximately 8000 resonance units (RU) using standard N-hydroxysuccinimide/N-Ethyl-N′-(3-dimethylaminopropyl) carbodiimide hydrochloride (NHS/EDC) coupling methodology. The anti-BCMA antibody (2 μg/mL) was captured for 60 seconds at a flow rate of 10 μL/minute. The his-tagged BCMA protein was run at […] different dilutions of 3.12, 6.25, 12.5, 25, 50, 100 and 200 nM, in a running buffer of 0.01 M HEPES pH 7.4, 0.15 M NaCl, 3 mM EDTA, 0.05% v/v Surfactant P20 (HBS-EP+). The 25 nM BCMA protein run was measured two times. All measurements were conducted in HBS-EP+ buffer with a flow rate of 30 μL/minute. […] The SPR sensorgrams of anti-BCMA antibodies BCA7, GSK J6M0, BC4C9 and BC5C4 are shown in FIGS. 1, 2, 3 and 4, respectively, and their corresponding binding kinetics are listed in Table 3.
Binding kinetics of optimized anti-BCMA antibodies BCA7-2C5, BCA7-2D11, BCA7-2G2, BCA7-2E1, BCA7-2D8 and BCA7-2E8, with his-tagged human BCMA protein (ACROBiosystems, catalog # BCA-H522y-100 ug), were analyzed in the manner as described above.

[7] = target: T3, his-tagged human BCMA protein …; test: SPR (Biacore T200, 25 C), antibody captured on anti-human Fc, his-tagged human BCMA as analyte, 1:1 binding model
Method: Binding kinetics of anti-BCMA antibodies with his-tagged human BCMA protein (ACROBiosystems, catalog # BCA-H522y-100 ug, UniProt Q02223-1, SEQ ID NO:92) was measured using surface plasmon resonance (SPR). Kinetic interactions between the antibodies and his-tagged BCMA proteins were measured at 25° C. using Biacore T200 surface plasmon resonance (GE Healthcare). Anti-human fragment crystallizable region (Fc region) antibody was immobilized on a CM5 sensor chip to approximately 8000 resonance units (RU) using standard N-hydroxysuccinimide/N-Ethyl-N′-(3-dimethylaminopropyl) carbodiimide hydrochloride (NHS/EDC) coupling methodology. The anti-BCMA antibody (2 μg/mL) was captured for 60 seconds at a flow rate of 10 μL/minute. The his-tagged BCMA protein was run at six different dilutions of 3.12, 6.25, 12.5, 25, 50, 100 and 200 nM, in a running buffer of 0.01 M HEPES pH 7.4, 0.15 M NaCl, 3 mM EDTA, 0.05% v/v Surfactant P20 (HBS-EP+). The 25 nM BCMA protein run was measured two times. All measurements were conducted in HBS-EP+ buffer with a flow rate of 30 μL/minute. A 1:1 (Langmuir) binding model was used to fit the data. The SPR sensorgrams of anti-BCMA antibodies BCA7, GSK J6M0, BC4C9 and BC5C4 are shown in FIGS. 1, 2, 3 and 4, respectively, and their corresponding binding kinetics are listed in Table 3.

T5 sequence (A0A2K5UD97 entry or part of it): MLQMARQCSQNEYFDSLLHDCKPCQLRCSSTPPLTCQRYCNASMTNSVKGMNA

| Binder | binding result [1] | binding result [2] | Kd [3] [nM] | Kd [4] [nM] | Kd [5] [nM] | Kd [6] [nM] | ka1 [6] [M⁻¹ s⁻¹] | ka2 [6] [s⁻¹] | kd1 [6] [s⁻¹] | kd2 [6] [s⁻¹] | Kd [7] [nM] | koff [7] [s⁻¹] | kon [7] [M⁻¹ s⁻¹] |
| --- | --- | --- | --- | --- | --- | --- | --- | --- | --- | --- | --- | --- | --- |
| B1 | binds | binds | 20.4 | 1000 | 174 | 20.4 | 2.51e+06 | 0.0018 | 0.151 | 0.000929 |  |  |  |
| B2 |  |  |  |  |  | 21.9 | 1.87e+06 | 0.00381 | 0.261 | 0.00071 |  |  |  |
| B3 |  |  |  |  |  | 155 | 48700 | 0.0119 | 0.0202 | 0.00707 |  |  |  |
| B4 |  |  |  |  |  | 53.7 | 32100 | 0.00143 | 0.00376 | 0.00121 |  |  |  |
| B5 |  |  |  |  |  | 83.8 | 2.43e+06 | 0.0113 | 1.09 | 0.0026 |  |  |  |
| B6 | binds | binds |  |  |  |  |  |  |  |  | 27.3 | 0.000567 | 20800 |
| B7 |  |  |  |  |  |  |  |  |  |  | 9.27 | 0.033 | 3.56e+06 |
